# Laboratory results as given in paper PMC5372681, “Study of Different Variants of Mo Enzyme crARC and the Interaction with Its Partners crCytb5-R and crCytb5-1” (International Journal of Molecular Sciences, 2017).
# B1: crCytb5-R, Chlamydomonas reinhardtii NADH cytochrome b5 reductase (enzyme)
# chain: MEEAGSEVMRSVITLLSYWQVGAGLLVVLVLIQALVFLRKKTKKPFLDPSEFQPVPLVEKTLITHNTVRLRFALPDPEQRVGLPIGQHISFKAQGEDGKDVIRPYTPVSDDDQLGAVDFVIKLYPTGKMSQVIAKMQLGDTMLMKGPKGRFTYTPNMVKHFGMLAGGTGITPMFQVLNAILKNPRDTTSVTLLYGNLTEEDILLRKELDELVAMHGNRLTVYHVLNTPPVDKEWSGGSGFISSELIRTKFPAPSSDIMTLRCGPSPMMVAMEKALTDLGYAEDKQFQF
# Biological target: T1, crARC, Chlamydomonas reinhardtii mARC (mitochondrial Amidoxime Reducing Component), wild type (Chlamydomonas reinhardtii)
# T1 construct: crARC, Chlamydomonas reinhardtii mARC, GenPept XP_001694549; Carries the Mo Cofactor; The mutant cDNAs were cloned in pQE80 (N-terminal six histidines); also called wild type crARC; Mo enzyme crARC; source: E. coli TP1000 (mobA), purified (Ni-NTA, PD10 desalting)
# Assay: SEC; two proteins incubated together for 10 min, then loaded; 15 pmol of each; Superdex 200 10/300 GL, 50 mM phosphate buffer pH 7.2, 0.15 M NaCl, 0.75 mL/min; peak fractions checked by SDS-PAGE
# Settings: both partners purified
binder,measurement,value
B1,stoichiometry N,1 crCytb5-R per crARC
